# In paper PMC3426363 (Pharmaceutical research, 2011):
# Read-outs that look alike come from different tables or passages of the source.
# T1: UGT1A1 (Homo sapiens, UniProt P22309)
# T1 sequence (P22309 26-533): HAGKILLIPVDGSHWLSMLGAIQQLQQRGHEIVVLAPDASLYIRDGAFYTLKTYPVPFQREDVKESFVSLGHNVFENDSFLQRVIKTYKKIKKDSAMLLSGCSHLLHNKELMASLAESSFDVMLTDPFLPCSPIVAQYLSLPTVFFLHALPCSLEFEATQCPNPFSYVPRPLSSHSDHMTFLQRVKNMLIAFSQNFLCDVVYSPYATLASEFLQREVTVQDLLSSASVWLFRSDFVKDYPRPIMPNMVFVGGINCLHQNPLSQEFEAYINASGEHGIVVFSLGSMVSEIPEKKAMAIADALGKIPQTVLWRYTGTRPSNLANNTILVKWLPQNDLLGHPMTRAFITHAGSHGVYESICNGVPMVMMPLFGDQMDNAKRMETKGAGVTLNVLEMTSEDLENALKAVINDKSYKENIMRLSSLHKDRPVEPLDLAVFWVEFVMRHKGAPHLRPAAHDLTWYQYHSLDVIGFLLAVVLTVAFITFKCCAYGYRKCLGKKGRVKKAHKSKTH
# T2: UGT1A3 (Homo sapiens, UniProt P35503)
# T2 sequence (P35503 29-534): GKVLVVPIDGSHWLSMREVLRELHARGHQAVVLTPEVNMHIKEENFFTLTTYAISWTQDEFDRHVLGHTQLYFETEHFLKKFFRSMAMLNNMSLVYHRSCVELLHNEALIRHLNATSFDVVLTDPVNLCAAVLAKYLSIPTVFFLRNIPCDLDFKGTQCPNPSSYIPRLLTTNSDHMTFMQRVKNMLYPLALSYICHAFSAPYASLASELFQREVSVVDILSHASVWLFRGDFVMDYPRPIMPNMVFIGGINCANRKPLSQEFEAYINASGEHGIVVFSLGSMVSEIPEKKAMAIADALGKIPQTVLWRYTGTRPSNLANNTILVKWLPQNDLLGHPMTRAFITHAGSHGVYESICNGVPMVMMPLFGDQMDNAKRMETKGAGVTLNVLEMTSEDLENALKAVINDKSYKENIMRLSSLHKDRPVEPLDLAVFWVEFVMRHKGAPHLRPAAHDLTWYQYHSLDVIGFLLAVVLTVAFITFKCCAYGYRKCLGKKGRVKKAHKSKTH
# T3: UGT1A10 (Homo sapiens, UniProt Q9HAW8)
# T3 sequence (Q9HAW8 26-530): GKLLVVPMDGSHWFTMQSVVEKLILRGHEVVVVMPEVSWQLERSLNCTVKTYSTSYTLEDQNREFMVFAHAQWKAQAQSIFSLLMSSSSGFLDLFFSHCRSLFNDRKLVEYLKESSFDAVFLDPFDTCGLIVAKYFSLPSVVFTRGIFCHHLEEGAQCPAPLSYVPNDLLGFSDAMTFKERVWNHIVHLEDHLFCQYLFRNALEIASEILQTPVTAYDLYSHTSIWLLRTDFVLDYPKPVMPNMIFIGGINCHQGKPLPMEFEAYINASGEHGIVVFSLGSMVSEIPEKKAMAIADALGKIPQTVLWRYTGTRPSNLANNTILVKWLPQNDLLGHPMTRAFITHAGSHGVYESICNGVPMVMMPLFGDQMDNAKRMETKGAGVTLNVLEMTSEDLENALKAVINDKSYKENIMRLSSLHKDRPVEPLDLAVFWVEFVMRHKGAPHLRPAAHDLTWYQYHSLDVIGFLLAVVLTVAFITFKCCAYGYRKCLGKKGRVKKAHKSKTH
# T4: UGT1A7 (Homo sapiens, UniProt Q9HAW7)
# T4 sequence (Q9HAW7 26-530): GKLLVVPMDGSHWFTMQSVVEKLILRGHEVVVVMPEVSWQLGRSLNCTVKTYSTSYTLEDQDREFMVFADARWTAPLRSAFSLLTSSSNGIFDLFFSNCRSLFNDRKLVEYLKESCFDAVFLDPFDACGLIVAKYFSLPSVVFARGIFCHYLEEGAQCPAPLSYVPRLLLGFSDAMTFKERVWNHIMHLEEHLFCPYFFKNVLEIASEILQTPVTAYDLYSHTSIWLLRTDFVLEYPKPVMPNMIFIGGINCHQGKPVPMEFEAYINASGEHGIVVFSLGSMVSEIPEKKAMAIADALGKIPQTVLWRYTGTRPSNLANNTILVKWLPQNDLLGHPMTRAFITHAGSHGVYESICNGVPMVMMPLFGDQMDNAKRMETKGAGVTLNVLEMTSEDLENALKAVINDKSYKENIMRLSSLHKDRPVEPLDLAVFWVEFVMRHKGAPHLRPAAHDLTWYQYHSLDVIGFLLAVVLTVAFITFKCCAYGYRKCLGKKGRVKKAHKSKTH
# T5: UGT1A9 (Homo sapiens, UniProt O60656)
# T5 sequence (O60656 26-530): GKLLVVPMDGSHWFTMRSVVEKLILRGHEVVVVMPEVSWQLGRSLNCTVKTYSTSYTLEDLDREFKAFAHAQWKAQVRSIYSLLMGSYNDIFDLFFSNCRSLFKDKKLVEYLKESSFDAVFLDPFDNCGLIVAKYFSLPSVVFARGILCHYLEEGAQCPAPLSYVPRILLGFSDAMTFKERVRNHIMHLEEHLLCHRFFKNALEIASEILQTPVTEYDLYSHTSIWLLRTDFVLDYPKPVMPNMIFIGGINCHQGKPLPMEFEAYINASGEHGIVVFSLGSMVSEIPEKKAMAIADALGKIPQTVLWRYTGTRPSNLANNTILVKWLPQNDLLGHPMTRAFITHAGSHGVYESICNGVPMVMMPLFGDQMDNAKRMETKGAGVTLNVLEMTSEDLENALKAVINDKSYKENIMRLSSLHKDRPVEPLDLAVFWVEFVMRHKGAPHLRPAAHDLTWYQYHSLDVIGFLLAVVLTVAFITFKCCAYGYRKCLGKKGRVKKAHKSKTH
# How the values were obtained:
# UGT1A1 [1] = target: T1, UGT1A1; assay: UGT1A1 glucuronidation kinetics of flavonols; type: in vitro ADME; conditions: for Ks: substrate inhibition constant
# UGT1A3 = target: T2, UGT1A3; assay: UGT1A3 glucuronidation kinetics of flavonols; type: in vitro ADME; conditions: substrate inhibition constant
# UGT1A10 = target: T3, UGT1A10; assay: UGT1A10 glucuronidation kinetics of flavonols; type: in vitro ADME; conditions: substrate inhibition constant
# UGT1A7 = target: T4, UGT1A7; assay: UGT1A7 glucuronidation kinetics of flavonols; type: in vitro ADME; conditions: formation of 3-O-glucuronide, substrate inhibition constant
# UGT1A9 = target: T5, UGT1A9; assay: UGT1A9 glucuronidation kinetics of flavonols; type: in vitro ADME
# UGT1A1 [2] = target: T1, UGT1A1; conditions: cited from earlier work
# [3] = substrate: O=c1c(O)c(-c2ccc(O)cc2)oc2cc(O)cc(O)c12; assay: UGT1A1 glucuronidation kinetics of flavonols; type: in vitro ADME, human; conditions: other: UGT1A1; formation of 7-O-glucuronide; pH 6.5
# [4] = substrate: O=c1c(O)c(-c2ccc(O)cc2)oc2cc(O)ccc12; assay: UGT1A1 glucuronidation kinetics of flavonols; type: in vitro ADME, human; conditions: other: UGT1A1, pH 6.5
# [5] = substrate: O=c1c(O)c(-c2ccccc2)oc2cc(O)cc(O)c12; assay: UGT1A1 glucuronidation kinetics of flavonols; type: in vitro ADME, human; conditions: other: UGT1A1, pH 6.5
# [6] = substrate: O=c1c(O)c(-c2ccccc2)oc2cc(O)ccc12; assay: UGT1A1 glucuronidation kinetics of flavonols; type: in vitro ADME, human; conditions: other: UGT1A1, pH 6.5
# [7] = substrate: O=c1c(O)c(-c2ccc(O)cc2)oc2cc(O)cc(O)c12; assay: UGT1A3 glucuronidation kinetics of flavonols; type: in vitro ADME, human; conditions: other: UGT1A3; formation of 7-O-glucuronide; pH 6.5
# [8] = substrate: O=c1c(O)c(-c2ccccc2)oc2cc(O)cc(O)c12; assay: UGT1A3 glucuronidation kinetics of flavonols; type: in vitro ADME, human; conditions: other: UGT1A3, pH 6.5
# [9] = substrate: O=c1c(O)c(-c2ccccc2)oc2cc(O)ccc12; assay: UGT1A3 glucuronidation kinetics of flavonols; type: in vitro ADME, human; conditions: other: UGT1A3, pH 6.5
molecule,measurement,setting,value
"O=c1c(O)c(-c2ccc(O)cc2)oc2cc(O)cc(O)c12 [3,5,7,4’QHF, 3,5,7,4’-tetrahydroxyflavone]",Ks,UGT1A1 [1]; formation of 7-O-glucuronide,2.81 ± 0.67 µM
same,Ks,UGT1A3; formation of 7-O-glucuronide,7.52 ± 9.58 µM
same,Ks,UGT1A10; formation of 3-O-glucuronide,30.01 ± 8.00 µM
same,Ks,UGT1A10; formation of 7-O-glucuronide,51.37 ± 27.15 µM
"O=c1c(O)c(-c2ccccc2)oc2cc(O)ccc12 [3,7DHF, 3,7-dihydroxyflavone]",Ks/Km ratio,UGT1A1 [1]; 3-O-glucuronidation,0.38
same,Ks/Km ratio,UGT1A1 [1]; 7-O-glucuronidation,1.16
same,Vmax,UGT1A1 [1]; formation of 3-O-glucuronide,1.02 nmol/mg/min
same,Ks,UGT1A1 [1]; formation of 3-O-glucuronide,0.60 ± 0.38 µM
same,Vmax,UGT1A1 [1]; formation of 7-O-glucuronide,3.04 nmol/mg/min
same,Ks,UGT1A1 [1]; formation of 7-O-glucuronide,1.21 ± 0.23 µM
same,Ks,UGT1A3; formation of 3-O-glucuronide,100.05 ± 94.80 µM
same,Ks,UGT1A3; formation of 7-O-glucuronide,50.00 ± 80.17 µM
same,Ks,UGT1A7,309.17 ± 127.39 µM
same,Ks,"UGT1A9; formation of 3-O-glucuronide, substrate inhibition constant",30.13 ± 7.11 µM
same,Vmax,UGT1A9; formation of 7-O-glucuronide,2.04 nmol/mg/min
C#C[C@]1(O)CC[C@H]2[C@@H]3CCc4cc(O)ccc4[C@H]3CC[C@@]21C [ethinylestradiol],Km,UGT1A1 [2]; reported value,49.8 µM
same,Ks/Km ratio,UGT1A1 [2]; substrate inhibition at high concentrations of UDPGA,1.61
UGT1A1 (Homo sapiens) (protein) HAGKILLIPVDGSHWLSMLGAIQQLQQRGHEIVVLAPDASLYIRDGAFYTLKTYPVPFQREDVKESFVSLGHNVFENDSFLQRVIKTYKKIKKDSAMLLSGCSHLLHNKELMASLAESSFDVMLTDPFLPCSPIVAQYLSLPTVFFLHALPCSLEFEATQCPNPFSYVPRPLSSHSDHMTFLQRVKNMLIAFSQNFLCDVVYSPYATLASEFLQREVTVQDLLSSASVWLFRSDFVKDYPRPIMPNMVFVGGINCLHQNPLSQEFEAYINASGEHGIVVFSLGSMVSEIPEKKAMAIADALGKIPQTVLWRYTGTRPSNLANNTILVKWLPQNDLLGHPMTRAFITHAGSHGVYESICNGVPMVMMPLFGDQMDNAKRMETKGAGVTLNVLEMTSEDLENALKAVINDKSYKENIMRLSSLHKDRPVEPLDLAVFWVEFVMRHKGAPHLRPAAHDLTWYQYHSLDVIGFLLAVVLTVAFITFKCCAYGYRKCLGKKGRVKKAHKSKTH,Km,[3],0.13 ± 0.03 µM
same,Vmax,[3],1.38 ± 0.14 nmol/mg/min
same,Vmax/Km,[3],10620 µL/min/mg
same,Km,[4]; formation of 3-O-glucuronide,0.30 ± 0.05 µM
same,Vmax,[4]; formation of 3-O-glucuronide,0.68 ± 0.05 nmol/mg/min
same,Vmax/Km,[4]; formation of 3-O-glucuronide,2270 µL/min/mg
same,Km,[4]; formation of 7-O-glucuronide,0.43 ± 0.10 µM
same,Vmax,[4]; formation of 7-O-glucuronide,1.08 ± 0.13 nmol/mg/min
same,Vmax/Km,[4]; formation of 7-O-glucuronide,2520 µL/min/mg
same,Km,[5]; formation of 3-O-glucuronide,0.31 ± 0.10 µM
same,Vmax,[5]; formation of 3-O-glucuronide,0.82 ± 0.14 nmol/mg/min
same,Vmax/Km,[5]; formation of 3-O-glucuronide,2650 µL/min/mg
same,Km,[5]; formation of 7-O-glucuronide,0.51 ± 0.08 µM
same,Vmax,[5]; formation of 7-O-glucuronide,4.59 ± 0.46 nmol/mg/min
same,Vmax/Km,[5]; formation of 7-O-glucuronide,9000 µL/min/mg
same,Km,[6]; formation of 3-O-glucuronide,1.57 ± 1.09 µM
same,Vmax,[6]; formation of 3-O-glucuronide,1.02 ± 0.54 nmol/mg/min
same,Vmax/Km,[6]; formation of 3-O-glucuronide,650 µL/min/mg
same,Km,[6]; formation of 7-O-glucuronide,1.04 ± 0.19 µM
same,Vmax,[6]; formation of 7-O-glucuronide,3.04 ± 0.42 nmol/mg/min
same,Vmax/Km,[6]; formation of 7-O-glucuronide,2920 µL/min/mg
UGT1A3 (Homo sapiens) (protein) GKVLVVPIDGSHWLSMREVLRELHARGHQAVVLTPEVNMHIKEENFFTLTTYAISWTQDEFDRHVLGHTQLYFETEHFLKKFFRSMAMLNNMSLVYHRSCVELLHNEALIRHLNATSFDVVLTDPVNLCAAVLAKYLSIPTVFFLRNIPCDLDFKGTQCPNPSSYIPRLLTTNSDHMTFMQRVKNMLYPLALSYICHAFSAPYASLASELFQREVSVVDILSHASVWLFRGDFVMDYPRPIMPNMVFIGGINCANRKPLSQEFEAYINASGEHGIVVFSLGSMVSEIPEKKAMAIADALGKIPQTVLWRYTGTRPSNLANNTILVKWLPQNDLLGHPMTRAFITHAGSHGVYESICNGVPMVMMPLFGDQMDNAKRMETKGAGVTLNVLEMTSEDLENALKAVINDKSYKENIMRLSSLHKDRPVEPLDLAVFWVEFVMRHKGAPHLRPAAHDLTWYQYHSLDVIGFLLAVVLTVAFITFKCCAYGYRKCLGKKGRVKKAHKSKTH,Km,[7],3.30 ± 3.10 µM
same,Vmax,[7],0.86 ± 0.35 nmol/mg/min
same,Vmax/Km,[7],260 µL/min/mg
same,Km,[8]; formation of 3-O-glucuronide,0.84 ± 0.18 µM
same,Vmax,[8]; formation of 3-O-glucuronide,0.17 ± 0.01 nmol/mg/min
same,Vmax/Km,[8]; formation of 3-O-glucuronide,200 µL/min/mg
same,Km,[8]; formation of 7-O-glucuronide,2.12 ± 1.24 µM
same,Vmax,[8]; formation of 7-O-glucuronide,3.44 ± 0.84 nmol/mg/min
same,Vmax/Km,[8]; formation of 7-O-glucuronide,1620 µL/min/mg
same,Km,[9]; formation of 3-O-glucuronide,8.81 ± 2.72 µM
same,Vmax,[9]; formation of 3-O-glucuronide,0.18 ± 0.02 nmol/mg/min
same,Vmax/Km,[9]; formation of 3-O-glucuronide,20 µL/min/mg
same,Km,[9]; formation of 7-O-glucuronide,7.02 ± 3.76 µM
same,Vmax,[9]; formation of 7-O-glucuronide,1.89 ± 0.36 nmol/mg/min
same,Vmax/Km,[9]; formation of 7-O-glucuronide,270 µL/min/mg
